In US8632989B1, “Mutant insulin degrading enzyme and methods of use” (University of Kentucky Research Foundation, priority 2011, dated 2014):

Experiments:
[1] = ATPase activity, Pi release with acid-molybdate; type: biochemical; conditions: 1 mM ATP as substrate
Description: IDE activity was determined by measuring the increase in fluorescence that occurs when the enzyme cleaves the internally quenched fluorogenic substrate Abz-[…]-EDDnp (SEQ ID NO:3) at the R—K bond (Song et al., Journal of Biologial Chemistry 276, 1152-1155 (2001)). The reaction was followed on a SpectraMax Gemini XS fluorescence plate reader using an excitation and emission wavelengths of 318 nm and 419 nm, respectively. Initial velocities were determined using SoftMax Pro 4.0 and kinetic constants calculated using GraphPad Prism 4.0. ATPase activity was measured by following Pi release with acid-molybdate as described by Harder et al. (Harder et al., Biochemical Journal 298 (Pt 2), 395-401 (1994)).

Saccharomyces cerevisiae [2] = assay: IDE activity assay in yeast, serial dilution mating test; type: cell-based; conditions: MATa cells deficient for Axl1p and Ste23p, plasmid-encoded IDE
Description: (§1) Panel A depicts immunoblot of yeast-expressed IDE and IDE^K898A,K899A,S901A. Equivalent percentage amounts of total cellular extracts from yeast containing an empty expression vector or plasmids encoding IDE or the IDE^K898A,K899A,S901A mutant were analyzed by SDS-PAGE and immunoblotting using an IDE-specific antibody. […] An excess of MATa yeast were mixed with decreasing numbers of MATa cells deficient for Axl1p and Step 23p that were transformed with either an empty expression vector or a vector encoding IDE or IDE^K898A,K899A,S901A as indicated. Mating, which leads to colony growth, is dependent on production of mature a-factor pheromone by plasmid-encoded IDE. […] Concentrated samples of a-factor recovered from yeast bearing the indicated expression vector were spotted at the indicated dilutions on a lawn of RC757 MATa cells, which undergo growth arrest upon exposure to a-factor pheromone. […]
(§2) The assays take advantage of the ability of IDE, in lieu of the yeast M16 metallopeptidases Axl1p and Step 23p, to participate in the proteolytic maturation of yeast a-factor mating pheromone. […] Growth of diploid colonies, indicative of mating, was scored 3 days after incubation of plates at 30° C. […] Results of mating tests and halo assays were recorded by scanning plates with a Microtek flatbed scanner and importing digitized images into Photoshop and PowerPoint.

Saccharomyces cerevisiae [3] = assay: IDE activity assay in yeast, spot halo assay for a-factor production; type: cell-based; conditions: spot halo assay on RC757 lawn
Description: as §1, §2

B1: IDE: Native rat insulin degrading enzyme (SEQ ID NO:1), expressed as hexahistidine fusion protein in Sf9 insect cells (protein, listed as Rattus norvegicus)
chain: MRNGLVWLLHPALPSTLHSILGARPPPVKRLCGFPKQIYSTMNNPAIQRIEDHIVKSPEDKREYRGLELANGIKVLLISDPTTDKSSAALDVHIGSLSDPPNIPGLSHFCEHMLFLGTKKYPKENEYSQFLSEHAGSSNAFTSGEHTNYYFDVSHEHLEGALDRFAQFFLCPLFDASCKDREVNAVDSEHEKNVMNDAWRLFQLEKATGNPKHPFSKFGTGNKYTLETRPNQEGIDVREELLKFHSTYYSSNLMAICVLGRESLDDLTNLVVKLFSEVENKNVPLPEFPEHPFQEEHLKQLYKIVPIKDIRNLYVTFPIPDLQQYYKSNPGHYLGHLIGHEGPGSLLSELKSKGWVNTLVGGQKEGARGFMFFIINVDLTEEGLLHVEDIILHMFQYIQKLRAEGPQEWVFQECKDLNAVAFRFKDKERPRGYTSKIAGKLHYYPLNGVLTAEYLLEEFRPDLIDMVLDKLRPENVRVAIVSKSFEGKTDRTEQWYGTQYKQEAIPEDVIQKWQNADLNGKFKLPTKNEFIPTNFEILALEKDATPYPALIKDTAMSKLWFKQDDKFFLPKACLNFEFFSPFAYVDPLHCNMAYLYLELLKDSLNEYAYAAELAGLSYDLQNTIYGMYLSVKGYNDKQPILLKKITEKMATFEIDKKRFEIIKEAYMRSLNNFRAEQPHQHAMYYLRLLMTEVAWTKDELKEALDDVTLPRLKAFIPQLLSRLHIEALLHGNITKQAALGVMQMVEDTLIEHAHTKPLLPSQLVRYREVQLPDRGWFVYQRRNEVHNNCGIEIYYQTDMQSTSENMFLELFCQIISEPCFNTLRTKEQLGYIVFSGPRRANGIQGLRFIIQSEKPPHYLESRVEAFLITMEKAIEDMTEEAFQKHIQALAIRRLDKPKKLSAECAKYWGEIISQQYNYDRDNIEVAYLKTLSKDDIIKFYKEMLAVDAPRRHKVSVHVLAREMDSCPVVGEFPSQNDINLSEAPPLPQPEVIHNMTEFKRGLPLFPLVKPHINFMAAKL
modifications: hexahistidine tag; wild-type Insulin Degrading Enzyme (IDE) from rat
IDE-dependent ATPase activity [1]: less than 1 nmol/min/mg IDE
mating promoted in yeast (Saccharomyces cerevisiae [2]): promoted mating to a greater extent
production of a-factor by yeast (Saccharomyces cerevisiae [3]): greater production of a-factor
